Biological target: T1, human Kir2.1 channel, wild type (human), P63252
T1 chain: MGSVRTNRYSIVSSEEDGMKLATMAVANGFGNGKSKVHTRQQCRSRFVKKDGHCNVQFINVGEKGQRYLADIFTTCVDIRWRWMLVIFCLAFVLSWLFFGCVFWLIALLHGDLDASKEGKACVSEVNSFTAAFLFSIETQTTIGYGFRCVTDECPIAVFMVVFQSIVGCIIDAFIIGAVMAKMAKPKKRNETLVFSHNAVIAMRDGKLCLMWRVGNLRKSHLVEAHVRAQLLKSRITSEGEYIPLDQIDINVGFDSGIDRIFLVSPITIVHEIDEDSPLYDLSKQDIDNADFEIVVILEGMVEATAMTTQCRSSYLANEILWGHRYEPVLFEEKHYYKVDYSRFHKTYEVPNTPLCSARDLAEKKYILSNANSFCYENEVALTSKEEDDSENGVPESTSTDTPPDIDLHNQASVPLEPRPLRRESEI
Assay: SEC
Conditions: remark: other sources report otherwise

B1: human Kir2.1 channel, wild type, P63252 1-427 (natural protein)
chain: T1 chain
- stoichiometry N: 4

Reference: article PMC9506730
